T1: Gα13(135)R128A (mouse, UniProt P27601 1-377, R128A)
T1 construct: Gα13, mouse; also called Gα13-R128A; source: HEK293T, transfected, in intact cells
T1 sequence (looked up): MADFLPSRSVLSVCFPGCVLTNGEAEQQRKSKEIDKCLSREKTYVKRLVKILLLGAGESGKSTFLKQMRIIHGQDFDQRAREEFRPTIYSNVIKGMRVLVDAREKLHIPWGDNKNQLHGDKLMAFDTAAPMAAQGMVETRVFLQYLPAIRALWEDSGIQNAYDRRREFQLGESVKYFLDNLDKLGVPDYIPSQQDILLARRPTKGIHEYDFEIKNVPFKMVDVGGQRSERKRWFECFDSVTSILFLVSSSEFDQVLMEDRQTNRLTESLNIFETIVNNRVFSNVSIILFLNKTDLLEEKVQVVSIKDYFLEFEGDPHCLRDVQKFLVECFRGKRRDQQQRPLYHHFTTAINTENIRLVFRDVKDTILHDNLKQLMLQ

T2: Gα13-mTurq2 (mTurquoise2 between amino acids 127 and 128) (mouse, UniProt P27601 1-377)
T2 construct: Gα13, mouse; co-expressed with human TPα receptor, human Gβ1 and bovine Gγ2; also called Gα13(127); mTurq2-Gα13; source: HEK293T, transfected, in intact cells; not shown: mTurquoise2, internal (after residue 127), kept
T2 sequence (looked up): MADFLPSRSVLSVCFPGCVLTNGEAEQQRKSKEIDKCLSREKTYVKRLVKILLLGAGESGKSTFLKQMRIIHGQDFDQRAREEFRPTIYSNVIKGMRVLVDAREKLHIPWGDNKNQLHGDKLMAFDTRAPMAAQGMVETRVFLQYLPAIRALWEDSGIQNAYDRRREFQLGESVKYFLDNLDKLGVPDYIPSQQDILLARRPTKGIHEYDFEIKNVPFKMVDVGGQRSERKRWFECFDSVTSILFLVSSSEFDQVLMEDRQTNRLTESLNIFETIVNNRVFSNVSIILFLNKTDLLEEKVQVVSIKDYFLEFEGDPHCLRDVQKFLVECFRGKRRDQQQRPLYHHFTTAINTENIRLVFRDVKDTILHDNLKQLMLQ

T3: Gα13(135) (mTurquoise2 between amino acids 135 and 136) (mouse, UniProt P27601 1-377)
T3 construct: Gα13, mouse; Gibson assembly; also called wt-Gα13; source: HEK293T, transfected, in intact cells
T3 sequence (looked up): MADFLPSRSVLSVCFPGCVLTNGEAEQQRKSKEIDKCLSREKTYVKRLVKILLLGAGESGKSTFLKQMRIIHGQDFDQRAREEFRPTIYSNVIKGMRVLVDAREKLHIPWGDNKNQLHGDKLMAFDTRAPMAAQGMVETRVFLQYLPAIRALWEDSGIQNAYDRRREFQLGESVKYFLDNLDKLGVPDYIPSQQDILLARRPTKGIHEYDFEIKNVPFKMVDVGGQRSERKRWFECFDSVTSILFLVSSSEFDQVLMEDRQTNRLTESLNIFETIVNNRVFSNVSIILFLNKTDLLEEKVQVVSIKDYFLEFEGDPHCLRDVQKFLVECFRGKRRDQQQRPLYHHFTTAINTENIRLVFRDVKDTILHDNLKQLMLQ


Key:
Test in all cases: FRET or BRET; single-cell FRET in intact HEK293T cells co-transfected with TPα receptor, Gβ1 and Gγ2; donor mTurquoise2 (or CFP) on the Gα subunit, acceptor YFP on the RhoGEF; F535/F480 emission ratio on superfusion with the agonist U-46619 and after its washout (AUC of decay over the 10 min washout); room temperature, buffer pH 7.3
[1] = biological target: Gα13-mTurq2 (mTurquoise2 between amino acids 127 and 128) (mouse) (UniProt P27601)
[2] = biological target: Gα13(135) (mTurquoise2 between amino acids 135 and 136) (mouse) (UniProt P27601)
[3] = biological target: Gα13(135)R128A (mouse) (UniProt P27601)
[4] = biological target: T1, Gα13(135)R128A
[5] = biological target: T2, Gα13-mTurq2 (mTurquoise2 between amino …); conditions: partners not purified
[6] = biological target: T3, Gα13(135) (mTurquoise2 between amino …); conditions: partners not purified

eYFP-p115-RhoGEF, sequence (Q61210 whole entry): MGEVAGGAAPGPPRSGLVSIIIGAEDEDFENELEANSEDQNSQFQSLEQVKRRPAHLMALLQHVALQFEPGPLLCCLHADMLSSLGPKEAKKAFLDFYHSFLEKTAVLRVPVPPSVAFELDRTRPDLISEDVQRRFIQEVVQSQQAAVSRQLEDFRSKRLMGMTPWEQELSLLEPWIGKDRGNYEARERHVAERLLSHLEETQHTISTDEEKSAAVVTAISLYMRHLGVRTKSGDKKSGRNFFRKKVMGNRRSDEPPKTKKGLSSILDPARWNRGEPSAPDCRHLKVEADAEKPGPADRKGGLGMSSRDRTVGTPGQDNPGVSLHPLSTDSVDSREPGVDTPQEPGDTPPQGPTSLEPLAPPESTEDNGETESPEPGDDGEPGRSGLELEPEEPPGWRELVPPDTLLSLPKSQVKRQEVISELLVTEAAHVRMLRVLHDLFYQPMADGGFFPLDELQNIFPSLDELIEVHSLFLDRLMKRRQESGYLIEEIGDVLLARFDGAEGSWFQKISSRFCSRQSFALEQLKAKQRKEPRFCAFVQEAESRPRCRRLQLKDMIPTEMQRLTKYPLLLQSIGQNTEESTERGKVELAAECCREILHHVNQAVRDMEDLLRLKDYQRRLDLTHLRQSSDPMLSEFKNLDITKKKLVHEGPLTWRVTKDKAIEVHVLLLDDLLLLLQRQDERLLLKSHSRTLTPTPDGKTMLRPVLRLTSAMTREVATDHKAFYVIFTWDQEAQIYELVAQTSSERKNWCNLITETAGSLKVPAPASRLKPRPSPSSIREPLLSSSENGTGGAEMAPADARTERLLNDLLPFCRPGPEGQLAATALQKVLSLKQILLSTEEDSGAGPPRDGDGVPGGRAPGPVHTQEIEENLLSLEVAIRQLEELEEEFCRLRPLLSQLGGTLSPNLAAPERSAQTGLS
p115-Rshort (p115-RhoGEF amino acids 34-235), sequence (Q61210 34-235): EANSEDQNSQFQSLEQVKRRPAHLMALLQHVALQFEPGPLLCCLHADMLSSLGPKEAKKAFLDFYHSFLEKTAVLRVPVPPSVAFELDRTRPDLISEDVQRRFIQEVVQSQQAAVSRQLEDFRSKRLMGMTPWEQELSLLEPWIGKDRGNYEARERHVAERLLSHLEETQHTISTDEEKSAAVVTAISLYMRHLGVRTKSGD
p115-R (p115-RhoGEF amino acids 1-245), sequence (Q61210 1-245): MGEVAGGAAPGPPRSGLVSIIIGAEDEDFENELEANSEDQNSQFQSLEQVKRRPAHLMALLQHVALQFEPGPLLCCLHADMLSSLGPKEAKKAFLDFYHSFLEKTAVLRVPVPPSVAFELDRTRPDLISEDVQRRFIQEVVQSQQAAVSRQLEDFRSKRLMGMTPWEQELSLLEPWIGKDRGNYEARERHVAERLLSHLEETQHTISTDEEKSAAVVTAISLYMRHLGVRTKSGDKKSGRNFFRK

Molecule	mean AUC of decay of the FRET signal after agonist washout (arbitrary unit) [1]	mean AUC of decay of the FRET signal after agonist washout [5]	further results
Chimera1 (p115-RhoGEF amino acids 1-232 and LARG amino acids 559-1544) (from UniProt Q61210 1-232; Q9NZN5 559-1544)	270	–	–
p115-R (p115-RhoGEF amino acids 1-245) (from UniProt Q61210 1-245) (domain or fragment)	343	–	–
p115-Rshort (p115-RhoGEF amino acids 34-235) (from UniProt Q61210 34-235) (domain or fragment)	444	–	–
LARG-PR (LARG amino acids 1-558) (domain or fragment, human, UniProt Q9NZN5 1-558, looked up, LARG, human, with the PDZ and RH domains; source: HEK293T, transfected, in intact cells) MSGTQSTITDRFPLKKPIRHGSILNRESPTDKKQKVERIASHDFDPTDSSSKKTKSSSEESRSEIYGLVQRCVIIQKDDNGFGLTVSGDNPVFVQSVKEDGAAMRAGVQTGDRIIKVNGTLVTHSNHLEVVKLIKSGSYVALTVQGRPPGSPQIPLADSEVEPSVIGHMSPIMTSPHSPGASGNMERITSPVLMGEENNVVHNQKVEILRKMLQKEQERLQLLQEDYNRTPAQRLLKEIQEAKKHIPQLQEQLSKATGSAQDGAVVTPSRPLGDTLTVSEAETDPGDVLGRTDCSSGDASRPSSDNADSPKSGPKERIYLEENPEKSETIQDTDTQSLVGSPSTRIAPHIIGAEDDDFGTEHEQINGQCSCFQSIELLKSRPAHLAVFLHHVVSQFDPATLLCYLYSDLYKHTNSKETRRIFLEFHQFFLDRSAHLKVSVPDEMSADLEKRRPELIPEDLHRHYIQTMQERVHPEVQRHLEDFRQKRSMGLTLAESELTKLDAERDKDRLTLEKERTCAEQIVAKIEEVLMTAQAVEEDKSSTMQYVILMYMKHLGVK	–	464 arbitrary unit	–
LARG-Rshort (LARG amino acids 360-561) (domain or fragment, human, UniProt Q9NZN5 360-561, looked up, LARG, human, RH domain without the region N-terminal to it; source: HEK293T, transfected, in intact cells) TEHEQINGQCSCFQSIELLKSRPAHLAVFLHHVVSQFDPATLLCYLYSDLYKHTNSKETRRIFLEFHQFFLDRSAHLKVSVPDEMSADLEKRRPELIPEDLHRHYIQTMQERVHPEVQRHLEDFRQKRSMGLTLAESELTKLDAERDKDRLTLEKERTCAEQIVAKIEEVLMTAQAVEEDKSSTMQYVILMYMKHLGVKVKE	–	380 arbitrary unit	–

More lines, main results first:

mean AUC of decay of the FRET signal after agonist washout (arbitrary unit) [1]	mean AUC of decay of the FRET signal after agonist washout [5]	Molecule	further results
274	–	Chimera 2 (full length p115 with the RH domain of LARG, amino acids 370-558, instead of p115 amino acids 44-232) (from UniProt Q61210 1-43; Q9NZN5 370-558; Q61210 233-912)	–
404	–	Chimera 3 (full length LARG with the RH domain of p115, amino acids 44-232, instead of LARG amino acids 370-558) (from UniProt Q9NZN5 1-369; Q61210 44-232; Q9NZN5 559-1544)	–
331	–	eYFP-p115-RhoGEF (from UniProt Q61210 1-920) (natural protein)	mean AUC of decay of the FRET signal after agonist washout (arbitrary unit) [2]: 284; mean AUC of decay of the FRET signal after agonist washout (arbitrary unit) [3]: 417
468	–	p115-E32G (from UniProt Q61210 1-920) (natural protein)	mean AUC of decay of the FRET signal after agonist washout (arbitrary unit) [2]: 453; mean AUC of decay of the FRET signal after agonist washout (arbitrary unit) [4]: 444
–	448 arbitrary unit	eYFP-human LARG (leukemia-associated RhoGEF) (natural protein, UniProt Q9NZN5 1-1544, looked up, LARG (leukemia-associated RhoGEF), human; also called YFP-LARG; wt-LARG; source: HEK293T, transfected, in intact cells; not shown: YFP, N-terminal, kept) MSGTQSTITDRFPLKKPIRHGSILNRESPTDKKQKVERIASHDFDPTDSSSKKTKSSSEESRSEIYGLVQRCVIIQKDDNGFGLTVSGDNPVFVQSVKEDGAAMRAGVQTGDRIIKVNGTLVTHSNHLEVVKLIKSGSYVALTVQGRPPGSPQIPLADSEVEPSVIGHMSPIMTSPHSPGASGNMERITSPVLMGEENNVVHNQKVEILRKMLQKEQERLQLLQEDYNRTPAQRLLKEIQEAKKHIPQLQEQLSKATGSAQDGAVVTPSRPLGDTLTVSEAETDPGDVLGRTDCSSGDASRPSSDNADSPKSGPKERIYLEENPEKSETIQDTDTQSLVGSPSTRIAPHIIGAEDDDFGTEHEQINGQCSCFQSIELLKSRPAHLAVFLHHVVSQFDPATLLCYLYSDLYKHTNSKETRRIFLEFHQFFLDRSAHLKVSVPDEMSADLEKRRPELIPEDLHRHYIQTMQERVHPEVQRHLEDFRQKRSMGLTLAESELTKLDAERDKDRLTLEKERTCAEQIVAKIEEVLMTAQAVEEDKSSTMQYVILMYMKHLGVKVKEPRNLEHKRGRIGFLPKIKQSMKKDKEGEEKGKRRGFPSILGPPRRPSRHDNSAIGRAMELQKARHPKHLSTPSSVSPEPQDSAKLRQSGLANEGTDAGYLPANSMSSVASGASFSQEGGKENDTGSKQVGETSAPGDTLDGTPRTLNTVFDFPPPPLDQVQEEECEVERVTEHGTPKPFRKFDSVAFGESQSEDEQFENDLETDPPNWQQLVSREVLLGLKPCEIKRQEVINELFYTERAHVRTLKVLDQVFYQRVSREGILSPSELRKIFSNLEDILQLHIGLNEQMKAVRKRNETSVIDQIGEDLLTWFSGPGEEKLKHAAATFCSNQPFALEMIKSRQKKDSRFQTFVQDAESNPLCRRLQLKDIIPTQMQRLTKYPLLLDNIAKYTEWPTEREKVKKAADHCRQILNYVNQAVKEAENKQRLEDYQRRLDTSSLKLSEYPNVEELRNLDLTKRKMIHEGPLVWKVNRDKTIDLYTLLLEDILVLLQKQDDRLVLRCHSKILASTADSKHTFSPVIKLSTVLVRQVATDNKALFVISMSDNGAQIYELVAQTVSEKTVWQDLICRMAASVKEQSTKPIPLPQSTPGEGDNDEEDPSKLKEEQHGISVTGLQSPDRDLGLESTLISSKPQSHSLSTSGKSEVRDLFVAERQFAKEQHTDGTLKEVGEDYQIAIPDSHLPVSEERWALDALRNLGLLKQLLVQQLGLTEKSVQEDWQHFPRYRTASQGPQTDSVIQNSENIKAYHSGEGHMPFRTGTGDIATCYSPRTSTESFAPRDSVGLAPQDSQASNILVMDHMIMTPEMPTMEPEGGLDDSGEHFFDAREAHSDENPSEGDGAVNKEEKDVNLRISGNYLILDGYDPVQESSTDEEVASSLTLQPMTGIPAVESTHQQQHSPQNTHSDGAISPFTPEFLVQQRWGAMEYSCFEIQSPSSCADSQSQIMEYIHKIEADLEHLKKVEESYTILCQRLAGSALTDKHSDKS	mean AUC of decay of the FRET signal after agonist washout ([4]; partners not purified): 495 arbitrary unit; mean AUC of decay of the FRET signal after agonist washout [6]: 462 arbitrary unit

From publication PMC9700851, “Interaction kinetics between p115-RhoGEF and Gα13 are determined by unique molecular interactions affecting agonist sensitivity” (Communications Biology, 2022)
